Numbering of substitutions follows the chain as printed. Where two headings read alike, the source gives them in different places.
What was measured:
[1] = target: Rpb2 subunit of S. cerevisiae RNA polymerase II (S. cerevisiae, UniProt P08518 1-1224); test: cryo-EM structure
[2] = target: T1, RNA polymerase II (12-subunit);Rad26 (Saccharomyces cerevisiae;Saccharomyces …, UniProt P04050;P08518;P16370;P20433;P20434;P20435;P34087;P20436;P27999;P22139;P38902;P40 …, |); test: EMSA
[3] = target: T1, RNA polymerase II (12-subunit);Rad26; test: EMSA; remark: listed apart in the source
[4] = target: T1, RNA polymerase II (12-subunit);Rad26; test: EMSA; remark: listed apart in the source
[5] = target: T1, RNA polymerase II (12-subunit);Rad26; test: EMSA; remark: listed apart in the source
[6] = target: T1, RNA polymerase II (12-subunit);Rad26; test: EMSA; remark: listed apart in the source
[7] = target: T1, RNA polymerase II (12-subunit);Rad26; test: EMSA; remark: listed apart in the source

Chain of Rpb2 subunit of S. cerevisiae RNA polymerase II (P08518 whole entry): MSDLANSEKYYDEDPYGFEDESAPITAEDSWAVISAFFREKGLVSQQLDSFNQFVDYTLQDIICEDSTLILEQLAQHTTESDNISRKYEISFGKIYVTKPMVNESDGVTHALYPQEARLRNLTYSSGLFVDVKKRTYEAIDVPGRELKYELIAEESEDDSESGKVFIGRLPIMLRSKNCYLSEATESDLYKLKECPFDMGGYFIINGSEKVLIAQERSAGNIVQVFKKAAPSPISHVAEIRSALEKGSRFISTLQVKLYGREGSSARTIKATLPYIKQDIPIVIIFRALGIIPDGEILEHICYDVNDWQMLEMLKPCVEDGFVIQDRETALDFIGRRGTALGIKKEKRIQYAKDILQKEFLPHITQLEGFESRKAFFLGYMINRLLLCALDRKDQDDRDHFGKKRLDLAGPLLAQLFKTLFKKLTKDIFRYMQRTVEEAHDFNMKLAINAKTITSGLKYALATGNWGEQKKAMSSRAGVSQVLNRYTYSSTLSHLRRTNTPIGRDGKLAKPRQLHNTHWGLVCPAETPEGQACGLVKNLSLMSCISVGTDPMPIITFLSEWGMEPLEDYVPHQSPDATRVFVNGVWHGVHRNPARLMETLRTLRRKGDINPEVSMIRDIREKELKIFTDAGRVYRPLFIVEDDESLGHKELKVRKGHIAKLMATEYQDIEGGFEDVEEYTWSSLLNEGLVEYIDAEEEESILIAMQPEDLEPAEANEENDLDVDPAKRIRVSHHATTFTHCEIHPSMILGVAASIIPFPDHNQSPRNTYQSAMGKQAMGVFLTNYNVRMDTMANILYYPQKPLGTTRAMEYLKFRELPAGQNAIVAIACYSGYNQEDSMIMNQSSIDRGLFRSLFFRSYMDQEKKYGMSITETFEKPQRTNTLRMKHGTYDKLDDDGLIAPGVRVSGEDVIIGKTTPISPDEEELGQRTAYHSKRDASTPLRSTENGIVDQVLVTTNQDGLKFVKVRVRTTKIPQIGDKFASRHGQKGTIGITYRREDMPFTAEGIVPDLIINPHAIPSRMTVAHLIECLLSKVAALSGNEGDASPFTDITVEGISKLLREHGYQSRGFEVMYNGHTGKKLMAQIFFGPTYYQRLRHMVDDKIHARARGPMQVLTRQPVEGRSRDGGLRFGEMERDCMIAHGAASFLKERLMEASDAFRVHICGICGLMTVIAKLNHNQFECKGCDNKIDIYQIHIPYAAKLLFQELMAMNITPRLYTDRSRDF

B1: Saccharomyces cerevisiae Rad26 (natural protein, S. cerevisiae, UniProt P40352 1-1085, looked up)
chain: MEDKEQQDNAKLENNESLKDLGVNVLSQSSLEEKIANDVTNFSNLQSLQQEETRLERSKTALQRYVNKKNHLTRKLNNTTRISVKQNLRDQIKNLQSDDIERVLKDIDDIQSRIKELKEQVDQGAENKGSKEGLQRPGETEKEFLIRTGKITAFGHKAGFSLDTANREYAKNDEQKDEDFEMATEQMVENLTDEDDNLSDQDYQMSGKESEDDEEEENDDKILKELEDLRFRGQPGEAKDDGDELYYQERLKKWVKQRSCGSQRSSDLPEWRRPHPNIPDAKLNSQFKIPGEIYSLLFNYQKTCVQWLYELYQQNCGGIIGDEMGLGKTIQVIAFIAALHHSGLLTGPVLIVCPATVMKQWCNEFQHWWPPLRTVILHSMGSGMASDQKFKMDENDLENLIMNSKPSDFSYEDWKNSTRTKKALESSYHLDKLIDKVVTDGHILITTYVGLRIHSDKLLKVKWQYAVLDEGHKIRNPDSEISLTCKKLKTHNRIILSGTPIQNNLTELWSLFDFIFPGKLGTLPVFQQQFVIPINIGGYANATNIQVQTGYKCAVALRDLISPYLLRRVKADVAKDLPQKKEMVLFCKLTKYQRSKYLEFLHSSDLNQIQNGKRNVLFGIDILRKICNHPDLLDRDTKRHNPDYGDPKRSGKMQVVKQLLLLWHKQGYKALLFTQSRQMLDILEEFISTKDPDLSHLNYLRMDGTTNIKGRQSLVDRFNNESFDVFLLTTRVGGLGVNLTGANRIIIFDPDWNPSTDMQARERAWRIGQKREVSIYRLMVGGSIEEKIYHRQIFKQFLTNRILTDPKQKRFFKIHELHDLFSLGGENGYSTEELNEEVQKHTENLKNSKSEESDDFEQLVNLSGVSKLESFYNGKEKKENSKTEDDRLIEGLLGGESNLETVMSHDSVVNSHAGSSSSNIITKEASRVAIEAVNALRKSRKKITKQYEIGTPTWTGRFGKAGKIRKRDPLKNKLTGSAAILGNITKSQKEASKEARQENYDDGITFARSKEINSNTKTLENIRAYLQKQNNFFSSSVSILNSIGVSLSDKEDVIKVRALLKTIAQFDKERKGWVLDEEFRNNNAS
B1: binds [1].

B2: non-damaged TT scaffold (mixed)
DNA 1: CGAGCAGATCTCATAGCCCATTCCTACTAAGGAGAAGGAGCAGAGCG
DNA 2: CGCTCTGCTCCTTCTCCTTTCCTCTCGATGGCTATGAGATCTGCTCG
RNA: AUCGAGAGGA
B2: binds [2].

B3: AT-rich upstream fork scaffold (mixed)
DNA 1: B2 DNA 1 with G16T, C17T, C18T, A29T, A30G
DNA 2: B2 DNA 2 with T18C, T19A, G30A, G31A, C32A
RNA: AUCGAGAGGA
B3: binds [3].

B4: CPD lesion scaffold (mixed)
DNA 1: B2 DNA 1
DNA 2: B2 DNA 2
RNA: AUCGAGAGGA
modifications: CPD at TT of TS (nt 18-19)
B4: binds [4].

B5: 10+3 bubble scaffold (mixed)
DNA 1: B2 DNA 1 with A29C, G31T
DNA 2: B2 DNA 2 with T18C, T19A
RNA: AUCGAGAGGA
B5: binds [5].

B6: 3+10 bubble scaffold (mixed)
DNA 1: B2 DNA 1 with G16T, C17T, C18T, A29T, A30G
DNA 2: B2 DNA 2 with T18C, T19A
RNA: AUCGAGAGGA
B6: binds [6].

B7: 3+10+3 bubble scaffold (mixed)
DNA 1: B2 DNA 1 with G16T, C17T, C18T, A29C, G31T
DNA 2: B2 DNA 2 with T18C, T19A
RNA: AUCGAGAGGA
B7: binds [7].

Source: paper PMC5907806 (Nature, 2017)
